Results: the supplement of paper PMC9170038

Test system: MS2 coat protein
Assay: apparent KD of MS2 coat protein; designed switch direction (-1 OFF switch, 1 ON switch): -1; higher = weaker reporter binding
Outline: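 For each design, the apparent KD is the median over clusters of curves fitted to normalised cluster fluorescence. Clusters held RNA switches with common flanks, transcribed on Illumina chips by stalled E. coli RNA polymerase. These were titrated with SNAP-549-labelled MS2 coat protein, doubling from 0.7 or 1.5 nM to 3 µM, without input, with 200 uM small-molecule ligand, or with an oligonucleotide input.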

[1] = Eterna round: R95, input ligand: FMN 200 uM
[2] = Eterna round: R95, input ligand: microRNA oligo, concentration not stated
[3] = Eterna round: R95, input ligand: none
[4] = input ligand: microRNA oligo, concentration not stated

Row | Sequence | apparent KD of MS2 coat protein (input ligand: FMN 200 uM) | apparent KD of MS2 coat protein (input ligand: none) | also measured
1 | UAUGUAUACGUCAGGAUAUACGGUCCAGAUGGUAAGUAGAAGGGACAUGAGGAUCACCCAUGUAUAAUAAUAAU [AK 1] (puzzle: Brourd's mod of Exclusion 4) | – | – | apparent KD of MS2 coat protein [1]: 20.2 nM; apparent KD of MS2 coat protein [2]: 18 nM; apparent KD of MS2 coat protein [3]: 22.5 nM
2 | UAUGUGUCAGGAUAUUAGUAGUAAAUAAAUAAAAUUAUUACUGAGAAGGGACAUGAGGAUCACCCAUGUGCCUU [Salish 062 v31] (Eterna round: R97, puzzle: Exclusion 4) | 23.2 nM | 12.3 nM | –
3 | UAUUACCUAGGAUAUACAUGAGGAUCACCCAUGUCACGGGUCAACUUGUCCUACGCGUGUAGAAGGAGGGACCC [JL Ceriza mod 7] (puzzle: Exclusion 3) | – | – | apparent KD of MS2 coat protein [2]: 19.7 nM
4 | UAUUACGCAAGCAGGUCCCACAUGAGGAUCACCCAUGUGCUCGUCUUAUAACGAUCUGUGGGAAAACCUACGGAUCG [Elimod 19 - Jieux - Sensor, turn-off variant 1] (Eterna round: R97, puzzle: Sensor, turn-off variant 1) | 45.8 nM | 48.4 nM | –
5 | UAUUAGCAAGCAAAUGGGUACAUGAGGAUCACCCAUGUGCUCGUCUUAUAAGGUACUGUGACGAAAGUCACGGUCCC [mod--Eli7] (Eterna round: R97, puzzle: Sensor, turn-off variant 1) | 23 nM | 24 nM | –
6 | UAUUAGCAAGCGAGAUCCCACAUGAGGAUCACCCAUGUGCUCGUCUUAUAAAAGACUGUGACGAGAGUCACGGUCAC [Mat - Sensor, turn-off var - Eli Mod - D23] (Eterna round: R97, puzzle: Sensor, turn-off variant 1) | 13.7 nM | 12 nM | –
7 | UAUUAGCAAGUGAGAUCCCACAUGAGGAUCACCCAUGUGCUCGUCUUUUAACGUACUGUGAGGAAACUCACGGUACG [Sensor-V1 #82] (Eterna round: R97, puzzle: Sensor, turn-off variant 1) | 62.1 nM | 67.1 nM | –
8 | UAUUAUAAUGUAGGAUAUCUGCACGUGUAGUGCAGAGAAGGACAUGAGGAUCACCCAUGUAUAGUAGCUUCGGCUACAUUAUUU [ENG1-B3] (Eterna round: R96, puzzle: Exclusion NG 1) | 90.5 nM | 71.2 nM | apparent KD of MS2 coat protein [4]: 61.8 nM
9 | UAUUCGAUAGGAUAUGCACAUCAUUUGGGAGGUAACAGUGCACAUGAGGAUCACCCAUGUAGAAGGAUCUGGAU [Eternabot (L2) Solution 46] (Eterna round: R97, puzzle: Exclusion 2) | 102 nM | 118 nM | –
10 | UAUUCGCGAGGAUAUGCAGUCGAGUCCAUUACGUGUCUGGGACUUGAGGAUCACCCAAGUAGAAGGCGUCUCAU [salish99_ex2_r4_642] (Eterna round: R97, puzzle: Exclusion 2) | 124 nM | 123 nM | –
11 | UAUUGCAAGUGAGGAUAUGACAUGAGGAUCACCCAUGUAAAGGGAGUUGACUAUAUAGCAAGAUAUCAGAAGGCACAACUGUAU [JR_ExcNG2_Sub004] (Eterna round: R96, puzzle: Exclusion NG 2) | 309 nM | 131 nM | apparent KD of MS2 coat protein [4]: 114 nM
12 | UAUUGCAAGUGAGGAUAUGACAUGAGGAUCACCCAUGUAAAGGGAGUUGGCUAUAUAGCAAGAUAUCAGAAGGCACAACUGUAU [JR_ExcNG2_Sub005] (Eterna round: R96, puzzle: Exclusion NG 2) | 76.7 nM | 64.3 nM | apparent KD of MS2 coat protein [4]: 25.9 nM
13 | UAUUUAGCAAGCAGAUCCCACAUGAGGAUCACCCAUGUUCUCUGAAAGUACAGAAUUACUGUACAUGCUCGUCUUAU [Winner reversed engineered 33] (Eterna round: R97, puzzle: Sensor, turn-off variant 1) | 108 nM | 130 nM | –
14 | UAUUUAGCAAGCAGAUCCUACAUGAGGAUCACCCAUGUGCUCUGAACGUACAGAAUUACUGUACGAGCUCGUCUUAU [Winner reversed engineered 29] (Eterna round: R97, puzzle: Sensor, turn-off variant 1) | 166 nM | 198 nM | –
15 | UAUUUGCAAGCGAGAUCCCACAUGAGGAUCACCCAUGUUCUUUGAAAGUACAGAAUUACUGUACAAGCUCGUCUUAU [Winner reversed engineered 31] (Eterna round: R97, puzzle: Sensor, turn-off variant 1) | 62.6 nM | 73.4 nM | –
16 | UCAAAGCUAGGAUAUACAUGAGGAUCACCCAUGUUAUCACCCAUCGGGUCUUGCUUUUGUAGAAGGAGCAAUAA [Xeinso] (puzzle: Exclusion 3) | – | – | apparent KD of MS2 coat protein [2]: 25.6 nM
17 | UCAAGUAUGUAGGAUAUCGAUGUCUUCGGACAUCGAGAAGGACGUACAUGAGGAUCACCCAUGUAACUUGCAUG [Exclusion 6 - B - 10:a] (puzzle: Exclusion 6) | – | – | apparent KD of MS2 coat protein [2]: 55.2 nM
18 | UCAAGUAUGUAGGAUAUGAUGUGAUUAUACAUAUCAGAAGGACGUACAUGAGGAUCACCCAUGUAACUUGCAUG [Exclusion 6 - B - 12:c] (puzzle: Exclusion 6) | – | – | apparent KD of MS2 coat protein [1]: 29.8 nM; apparent KD of MS2 coat protein [2]: 59.1 nM; apparent KD of MS2 coat protein [3]: 52.6 nM

Row | Sequence | apparent KD of MS2 coat protein (input ligand: FMN 200 uM) | apparent KD of MS2 coat protein (input ligand: none) | also measured
19 | UCAAGUCCAUAGGAUAUCGACCAGUCCUCUGGAUGAGAAGGAUGAACUUGAGGAUCACCCAAGUGGCCGAAUAA [Aesin] (Eterna round: R97, puzzle: Exclusion 6) | 152 nM | 46.3 nM | –
20 | UCAAUUUUGACAGGAUAUAGUUUUUGUUUUUCUCUAGAAGGGUCUUUGCACAUGAGGAUCACCCAUGUUCUUUUUAUUUGCAUU [JR_ExcNG1_Sub015] (Eterna round: R96, puzzle: Exclusion NG 1) | 62.2 nM | 63.3 nM | apparent KD of MS2 coat protein [4]: 42.3 nM
21 | UCACGGGACUAAGGAUAUAUGAGUACCAUUUACAUAGAAGGUAGAAUGUUAGAUCAUAAACUAAACAUGAGGAUCACCCAUGUU [JR_ExcNG1_Sub092] (Eterna round: R96, puzzle: Exclusion NG 1) | – | – | apparent KD of MS2 coat protein [4]: 15.3 nM
22 | UCAUGUCCAGAGGAUAUGUAGCGGAUAAACGCAACAGAAGGCUGGACAUGAGGAUCACCCAUGUGUGCCUUCUA [Exclusion 6 Mod3 of JL of Mod of Letion by ViennaUCT] (Eterna round: R97, puzzle: Exclusion 6) | 81.3 nM | 227 nM | –
23 | UCCACACAUGAGGAUCACCCAUGUGAGGAUAUCAUGCUUCGUAGUAAACUACGAAGUGUGAGAAGGCACAUGGC [Omei Ex1 D13] (Eterna round: R97, puzzle: Exclusion 1) | 94.7 nM | 24.9 nM | –
24 | UCCACGUAAGGAUAUGGUCAUUGUGACUUGAGGAUCACCCAAGUUGUGAGCUUCCGUCACCCAGAAGGUGCAUGGU [Oratin] (Eterna round: R97, puzzle: Exclusion 5) | 216 nM | 99.9 nM | –
25 | UCCAUGUCAGGAUAUCCUAGCGCAAAGUUGCCCGCGCUGCUGGAGAAGGGACAUGAGGAUCACCCAUGUCUACA [EX4 C.10] (Eterna round: R97, puzzle: Exclusion 4) | 76.8 nM | 23.2 nM | –
26 | UCCCGUGAAGGAUAUGGUUACAGGCACAUGAGGAUCACCCAUGUCACCUCGAAUACCUGAUCAGAAGGUUACUCGA [Eternabot (Original) Solution 40] (Eterna round: R97, puzzle: Exclusion 5) | 20.1 nM | 19.9 nM | –
27 | UCCGAACAUGAGGAUCACCCAUGUCAGGAUAUAUUAAAGAAAGCCCGCGAAUGUGGGUAUAGAAGGGACAUGAA [Zaatinxe] (Eterna round: R97, puzzle: Exclusion 1) | 15.8 nM | 15.6 nM | –
28 | UCCGCCAAAGGAUAUACUGGGCGUUAAAAUCCUCUUAAAAGACAUGAGGAUCACCCAUGUAGAAGGUUGAGGAA [Isererri] (puzzle: Exclusion 2) | – | – | apparent KD of MS2 coat protein [2]: 201 nM
29 | UCCUCACAUGAGGAUCACCCAUGUCAGGAUAUACAAGAAAAUAACCGGAAAGAACGGAGUAGAAGGGACAUAAG [Xeontiorer] (puzzle: Exclusion 1) | – | – | apparent KD of MS2 coat protein [1]: 27.4 nM; apparent KD of MS2 coat protein [2]: 15.6 nM; apparent KD of MS2 coat protein [3]: 15.5 nM
30 | UCCUUAGCGGUCAGGAUAUACACCCGUUUCUCCUUGUAGAAGGGACAUGAGGAUCACCCAUGUACAGUACAUCU [alecazam64] (Eterna round: R97, puzzle: Brourd's mod of Exclusion 4) | 18.6 nM | 17.6 nM | –
31 | UCGCUCCGUGUAGGAUAUCGCCGUACUAUACGGCGAGAAGGACAUGAGGAUCACCCAUGUAUGUUAUUAUCACGCGUGGCGCAA [Design 60] (Eterna round: R96, puzzle: Exclusion NG 1) | 21 nM | 22.2 nM | apparent KD of MS2 coat protein [4]: 11.5 nM
32 | UCGCUCCGUGUAGGAUAUCGCCGUAUGAUGCGGCGAGAAGGACAUGAGGAUCACCCAUGUAUGUUAUUAUCACGCGUGGCGCAA [Design 63] (Eterna round: R96, puzzle: Exclusion NG 1) | 17.4 nM | 16.9 nM | apparent KD of MS2 coat protein [4]: 12 nM
33 | UCGCUGCGAGGAUAUACAUGAGGAUCACCCAUGUACGGGUCCGGGUCUUUGUCUAUUGGUAGAAGGCGCAGUGA [JL Laongeedie mod 9] (puzzle: Exclusion 3) | – | – | apparent KD of MS2 coat protein [2]: 51.5 nM
34 | UCGCUGCGAGGAUAUACGUGCGCGCGCUUUCGUUUGCGCGUACAUGAGGAUCACCCAUGUAGAAGGCGCGCUGC [Apr-15 SS2-6] (puzzle: Exclusion 2) | – | – | apparent KD of MS2 coat protein [2]: 12.7 nM
35 | UCGGCGCGAGGAUAUACGUUUGCGCUUUUUCGUUUUUGCGUACAUGAGGAUCACCCAUGUAGAAGGCGCGCCGC [Apr-15 SS2-17] (puzzle: Exclusion 2) | – | – | apparent KD of MS2 coat protein [2]: 14 nM
